PMC8167360

Target: X domain (Mac1) plus Mac2 (Mac1–2) of SARS-CoV Nsp3, purified (SARS-CoV (strain Frankfurt))
Assay: ITC; […] ([…]) […] ([…]) […]; 25°C; VP-ITC; 20 mM Tris–HCl pH 8.5, 150 mM NaCl

B1: middle domain of human Paip1 (Paip1M), purified (domain or fragment)
chain: GSHMASMTGGQQMGRGSTLSEYVQDFLNHLTEQPGSFETEIEQFAETLNGCVTTDDALQELVELIYQQATSIPNFSYMGARLCNYLSHHLTISPQSGNFRQLLLQRCRTEYEVKDQAAKGDEVTRKRFHAFVLFLGELYLNLEIKGTNGQVTRADILQVGLRELLNALFSNPMDDNLICAVKLLKLTGSVLEDAWKEKGKMDMEEIIQRIENVVLDANCSRDVKQMLLKLVELRSS
In the case of B1, the Kd is reported as 18.6 µM, the dH is reported as -3730 cal/mol and the stoichiometry N is reported as 1.14.
